± gives the standard deviation of the averaged measurements.
The sequences below were run on ATP (assay: switch fluorescence ratio, 500 uM ATP over buffer (Cy3 cluster intensity, sum of 5 cycles each) (fold (ratio)); higher = stronger signal-on switching upon ATP binding; sequences stand for … in TCGTCGGCAGCGTCAGATGTGTATAAGAGACAGTTTTTTTTTTTTTTTTTTTTTTTTT…TC). Settings: aptamer strand: ATP DNA aptamer (quencher-CACCTGGGGGAGTATTGCGGAGGAAGG + anchor), 100 nM annealed; ATP concentration: 500 uM.
Procedure, shortened: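 After annealing to 100 nM quencher-labelled ATP aptamer, Cy3-labelled switching-strand clusters on a modified Illumina MiSeq flow-cell were imaged in selection buffer. A second image followed after 15 min with 500 uM ATP at 22 °C, and five such buffer/ATP cycles were done, each separated by NaOH stripping and re-annealing. The fluorescence ratio, averaged per switch-domain sequence, is summed target-cycle over summed buffer-cycle Cy3 intensity per cluster, with clusters outside 100-1000 RFU excluded.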
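Note: ATP exposure 15 min at 22 °C before imaging.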

| Sequence | switch fluorescence ratio |
| --- | --- |
| CGACACTTAG | 1.049 ± 0.0091 |
| GGGGGCGTTA | 1.02 ± 0.026 |
| TTGGCTTGTC | 0.954 ± 0.019 |
| CATCGGTAGA | 1.02 ± 0.017 |
| ATTAATCGAC | 1.03 ± 0.092 |
| GATTGGAGTC | 1.008 ± 0.0045 |
| TCTTTAATAA | 1 ± 0.039 |
| TTTCCAGTTC | 1.37 ± 0.57 |
| TGGGTTATGG | 0.972 ± 0.016 |
| TTGATTTTCA | 0.999 ± 0.015 |
| GGTGATTGAC | 1.18 ± 0.3 |
| TGGTGGTGGT | 1.01 ± 0.033 |
| GTTAATGGAA | 0.986 ± 0.039 |
| ATGGGGAGAA | 1.01 ± 0.029 |
| AGAGGGTTAT | 0.985 ± 0.038 |
| TCGGGTATGG | 1.01 ± 0.042 |
| ATTTAGCGTC | 0.99 ± 0.016 |
| GCGTGACGTA | 1 ± 0.088 |
| TCGGCTTGGC | 1.03 ± 0.086 |
| GACATTCTCG | 1.005 ± 0.0086 |
| AAGGGGGGAC | 1.04 ± 0.07 |
| GAGTCTTATA | 1.01 ± 0.031 |
| GGGAATGGGT | 1.01 ± 0.014 |
| AGGGACGGAG | 1.01 ± 0.034 |
| ACTTCTAATT | 1.01 ± 0.038 |

| Sequence | switch fluorescence ratio |
| --- | --- |
| GGAGGGGAGG | 0.991 ± 0.029 |
| AAGTATATGT | 0.998 ± 0.027 |
| AGTATTTGTA | 1 ± 0.02 |
| GCTTGATTGG | 1.04 ± 0.019 |
| TGGGGTCAGC | 1.001 ± 0.0097 |
| ACGTTAGGGG | 1.14 ± 0.14 |
| GAGGACTTAG | 0.989 ± 0.022 |
| GTGAGTCTAA | 0.993 ± 0.018 |
| TTTCTCGTAA | 1.58 ± 0.55 |
| GGGTATATTT | 1 ± 0.065 |
| ACTAGTAACG | 0.9938 ± 0.0098 |
| GGGGAGGAAG | 0.997 ± 0.012 |
| TCTTGGTCAG | 0.991 ± 0.025 |
| TCACGGTAAT | 1.16 ± 0.097 |
| TTGTCTAGGG | 0.98 ± 0.033 |
| TCTTCTGTCG | 1.001 ± 0.0087 |
| ATTGGGGTGC | 0.992 ± 0.013 |
| GATTTTTGAG | 0.99 ± 0.017 |
| TCAGCGGGTT | 1.04 ± 0.12 |
| TGATATAGTG | 1.002 ± 0.01 |
| ATGGGTTGTG | 1 ± 0.03 |
| ATGACCTCTT | 0.985 ± 0.034 |
| AGGGTCTTAG | 1.02 ± 0.049 |
| TGAGCCTCGG | 0.965 ± 0.032 |
| CATATAGGGT | 0.976 ± 0.038 |

| Sequence | switch fluorescence ratio |
| --- | --- |
| GCGGAGGGGT | 1.02 ± 0.049 |
| CAGGGGGATG | 1.01 ± 0.032 |
| TCAATAGTAC | 1.084 ± 0.0024 |
| CACCGGCTGG | 0.986 ± 0.086 |
| TTTTCCATTA | 1 ± 0.044 |
| TGGATCAGAG | 0.9984 ± 0.0013 |
| GCGATTGAGC | 0.9808 ± 0.004 |
| GCTATCTCTT | 1.01 ± 0.012 |
| ATTTGATGAG | 0.987 ± 0.045 |
| ATTACCGGGG | 1.05 ± 0.035 |
| TTTTTAGTTT | 0.987 ± 0.028 |
| CTATTAAGTA | 0.9802 ± 0.0064 |
| GGGGGAGTTG | 0.982 ± 0.044 |
| CGTAGGGGTT | 0.989 ± 0.028 |
| GGCTTTTGTG | 0.974 ± 0.036 |
| ACGAGAGGGG | 0.996 ± 0.048 |
| TGTGGCGACG | 0.957 ± 0.012 |
| GGGGGGGGGG | 1.02 ± 0.068 |
| TTTGCAAGTA | 1.2 ± 0.3 |
| TTGAGGGGTA | 1.01 ± 0.021 |
| CTGAATGGGG | 0.971 ± 0.01 |
| ATTGTGAGAC | 0.986 ± 0.01 |
| GGTTGGGGAT | 0.979 ± 0.016 |
| ACATACTGCG | 1.323 ± 0.0038 |
| AGCGTTCTGG | 1.04 ± 0.041 |

| Sequence | switch fluorescence ratio |
| --- | --- |
| TTGGGTGAAC | 1.002 ± 0.0088 |
| TAGGGGTGCA | 1.079 ± 0.009 |
| GATGGTAGTT | 1.012 ± 0.0024 |
| GCGGTAGACG | 1.01 ± 0.021 |
| ACTGGGGCGG | 1.022 ± 0.0063 |
| GGGCGGCGGC | 0.988 ± 0.0099 |
| TTCGGTGACC | 1.02 ± 0.014 |
| TTTTGCATTA | 1.33 ± 0.5 |
| ACATTGATCG | 1.03 ± 0.017 |
| CTTTATATCT | 0.993 ± 0.03 |
| GCTCCAATCG | 1.13 ± 0.049 |
| TGTAAGTGCG | 0.9833 ± 0.0063 |
| TTGGAATTTT | 1.03 ± 0.031 |
| GGCGCAGTGG | 1.11 ± 0.041 |
| AAACGGGCGG | 0.996 ± 0.045 |
| AAATGGCCAC | 1.01 ± 0.035 |
| TTGTATAGTG | 0.933 ± 0.033 |
| AGGTCCCTGT | 1.01 ± 0.042 |
| TAGGATGGCC | 0.9522 ± 0.0012 |
| AGTGTAAGCC | 0.9622 ± 0.0067 |
| TTTGTCCCG | 1.01 ± 0.044 |
| TCTAGCAACG | 1.01 ± 0.032 |
| TTCGATTTTT | 0.981 ± 0.048 |
| TTCGTATTTC | 1.06 ± 0.083 |
| TTGGGGATTC | 0.991 ± 0.02 |

| Sequence | switch fluorescence ratio |
| --- | --- |
| AGGCAATTGT | 1.026 ± 0.01 |
| GTACTCGGGG | 0.9991 ± 0.0074 |
| CTTGGGCATG | 0.988 ± 0.019 |
| TTTCGTGCTT | 1.02 ± 0.032 |
| CCAATTTTGG | 0.977 ± 0.013 |
| CCAGCCGGGG | 1.06 ± 0.075 |
| AGTTATACGT | 1.03 ± 0.048 |
| CGGGGATTGC | 1.01 ± 0.016 |
| CAGTTACGGT | 1.003 ± 0.0068 |
| CGGGTGCGTG | 0.981 ± 0.017 |
| TTGGGGTGTG | 1.01 ± 0.017 |
| GGGGGAGAGC | 1.03 ± 0.043 |
| CTTCACACGT | 1.016 ± 0.01 |
| GGATGAGCTG | 0.978 ± 0.052 |
| ATGTTACCGG | 1.054 ± 0.0038 |
| GCATTTGAAG | 0.953 ± 0.05 |
| GATGTTAGTA | 0.973 ± 0.018 |
| GAGGCATATA | 1.9 ± 0.29 |
| GCTTGTAGTT | 0.9865 ± 0.0072 |
| AGATTTAGTC | 1 ± 0.051 |
| GCTGGGGAAA | 0.996 ± 0.032 |
| TTGTGGATAA | 1.01 ± 0.0094 |
| TGAGTATGGG | 0.973 ± 0.019 |
| ATATTAGGGT | 1.01 ± 0.042 |
| AAGGTCTTTA | 1 ± 0.035 |

| Sequence | switch fluorescence ratio |
| --- | --- |
| CACTAGTCTG | 1.01 ± 0.033 |
| AAAAAATGGG | 1.01 ± 0.012 |
| TGGAAAATTT | 1.01 ± 0.0059 |
| CCTGAGGGTT | 0.985 ± 0.0069 |
| TGCTATATGT | 0.993 ± 0.013 |
| GGGGCGGTGG | 1.036 ± 0.0062 |
| TAAAATGCCG | 1.01 ± 0.061 |
| CAGGTGAGAA | 1.16 ± 0.026 |
| TTATACATT | 1.02 ± 0.075 |
| TGTGAATGGT | 0.985 ± 0.015 |
| TTGTGGCTTA | 0.98 ± 0.036 |
| ATATGAGTGC | 0.951 ± 0.07 |
| GCTACACGGC | 1.02 ± 0.033 |
| TTATTGGGAT | 0.981 ± 0.033 |
| ATAAACCTAA | 1.05 ± 0.024 |
| TTGGTTGGGA | 1 ± 0.042 |
| ATATCGACGT | 1 ± 0.013 |
| GATACAGTGC | 1.059 ± 0.002 |
| AAAATATAGA | 0.9798 ± 0.0025 |
| ATGAATTTTA | 1 ± 0.031 |
| TGTTATAGAC | 1.05 ± 0.041 |
| GTTGCCTTGC | 1.06 ± 0.011 |
| TGCTTCCCTC | 1.1 ± 0.018 |
| GGGGTTGTGA | 1.01 ± 0.022 |
| TTATCTTGGT | 1 ± 0.015 |

| Sequence | switch fluorescence ratio |
| --- | --- |
| TGACGGGGTT | 0.992 ± 0.026 |
| TCGATAGTTG | 0.961 ± 0.054 |
| GGGAGAGACT | 1.03 ± 0.014 |
| TTTAATTGTG | 0.9891 ± 0.0082 |
| AGAAAAACCG | 1.05 ± 0.052 |
| TATTTCATTG | 1.02 ± 0.03 |
| CTTGCGGGCG | 0.982 ± 0.012 |
| GCCGTCTGTG | 0.9728 ± 0.0039 |
| GGTTGCACAG | 1.005 ± 0.0043 |
| TTATGGTTCG | 0.954 ± 0.013 |
| TTTTATGGAC | 1.03 ± 0.03 |
| GTGGGGGCCC | 0.993 ± 0.017 |
| GCCTATTGTT | 0.983 ± 0.02 |
| TTTGGAGTGT | 1.08 ± 0.12 |
| CCGTTGTGAA | 1.043 ± 0.0012 |
| GTAATTCGGG | 0.9809 ± 0.0073 |
| TATGTACGTT | 1.04 ± 0.051 |
| GGGCAGAAAT | 1.01 ± 0.048 |
| ACCAGAGGTA | 1.01 ± 0.014 |
| CGAAGTCGTC | 1.02 ± 0.021 |
| GAGGGGCGAT | 0.998 ± 0.013 |
| ACGGGGGGCA | 1.01 ± 0.048 |
| TGTAGTACCG | 1.021 ± 0.0056 |
| ATATTGCCTA | 1.003 ± 0.0074 |
| GGGGGAACCA | 0.9993 ± 0.0072 |

| Sequence | switch fluorescence ratio |
| --- | --- |
| AGCGCTTGTG | 1.02 ± 0.038 |
| GCCTAAATGC | 1.44 ± 0.28 |
| GGGAAGGGGC | 1.02 ± 0.018 |
| TGTTGCTGGG | 1 ± 0.026 |
| CGGGGAAATG | 0.997 ± 0.023 |
| CTAGGAAGGT | 1.01 ± 0.033 |
| TTTAAGCTAC | 4.03 ± 0.57 |
| AGAGTTCATA | 1.04 ± 0.027 |
| AATGTGGGAA | 1.01 ± 0.044 |
| TTTGCATTTG | 1.03 ± 0.013 |
| CAGTGGCGTC | 1.05 ± 0.02 |
| TGGTGGGTTC | 1.03 ± 0.067 |
| TATTGTGGGT | 0.98 ± 0.035 |
| GAGGTGTGTT | 0.996 ± 0.02 |
| GCATAAGCTC | 1.06 ± 0.062 |
| TAGTATTAGA | 0.993 ± 0.031 |
| TATTAGCAGC | 1.03 ± 0.012 |
| CGGACGGCTC | 1.093 ± 0.01 |
| TTTTCTTAGG | 1.08 ± 0.14 |
| CACACGTTAT | 1.19 ± 0.019 |
| GCGGGGGACC | 1.011 ± 0.0051 |
| GCTGGGTGTG | 1.03 ± 0.011 |
| AGTCAGTTTT | 1.024 ± 0.0078 |
| CGATTTTGA | 0.969 ± 0.043 |
| TAAGTCCACC | 1.012 ± 0.01 |

Source: the supplement of paper PMC10126150
